Assay results taken from patent US8026342B2, “Compositions and methods for binding sphingosine-1-phosphate” (Lpath, Inc., priority 2006, dated 2011).

Key:
[1] = test system: COLO205 tumor; test: SC COLO205 colorectal tumor xenograft; format: in vivo, nude NCr (nu/nu) mice
Experimental: Nude mice were implanted sc near the right flank with one fragment per mouse of COLO 205 tumor from an in vivo passage. All treatments were initiated the day when 60 mice in each experiment established tumors ranging in size from approximately 100 to 200 mm3. […] Avastin was administered iv at a dosage of 40 mg/kg/dose on a q7d schedule, injected in a volume of 0.1 mL/20 g body weight. Paclitaxel (positive control), was administered iv at a dosage of 15 mg/kg/dose on a q1d×5 schedule, injected in a volume of 0.1 mL/10 g body weight.
Animals were observed daily for mortality. Tumor dimensions and body weights were collected twice weekly starting with the first day of treatment and including the day of study termination. When the median tumor in the vehicle-treated control group in each study reached approximately 4,000 mg, the study was terminated. Tumors from each animal were harvested, wet weights were recorded, tumors were processed for determination of microvascular densities (MVD) by CD-31 staining. Tumor weights (mg) were calculated using the equation for an ellipsoid sphere (l×w^2)/2=mm^3, where l and w refer to the larger and smaller dimensions collected at each measurement and assuming unit density (1 mm^3=1 mg).

[2] = test system: RPMI 8226 tumor; test: RPMI 8226 human myeloma tumor xenograft; format: in vivo, CB17 SCID mice
Experimental: Nude mice (CB17 SCID, aged 4-5 weeks, weight 18-22 gm, female mice obtained from Harlan) were injected sc with RPMI 8226 cells harvested from tissue culture (˜1×10^7 cells/mouse). When tumors grew to approximately 100 mm^3 in size, animals were pair-matched by tumor size into treatment and control groups (10 mice per group). Initial dosing began Day 1 following pair-matching. Animals in all groups were dosed by weight (0.01 ml per gram; 10 ml/kg). […] Bortezomib was administered by intravenous injection via tail vein once every three days for six treatments (Q3D×6).
Individual and group mean tumor volumes±SEM are recorded twice weekly until study completion beginning Day 1. Final mean tumor volume±SEM for each group are reported at study completion; animals experiencing partial or complete tumor regressions or animals experiencing technical or drug-related deaths are censored from these calculations.

[3] = LT1009 formulation stability study (visual inspection, syringeability, SE-HPLC); format: physicochemical; conditions: independent of antibody concentration
Experimental: Preferred formulations should not only stabilize the antibody, but also be tolerated by patients when injected. […] Additionally, three different storage temperatures (5° C., 25° C., and 40° C.) were also examined (representing actual, accelerated, and temperature stress conditions, respectively). Stability was assessed using representative samples taken from the various formulations at five different time points: at study initiation and after two weeks, 1 month, 2 months, and 3 months. At each time point, testing involved visual inspection, syringeability (by pulling through a 30-gauge needle), and size exclusion high performance liquid chromatography (SE-HPLC). Circular dichroism (CD) spectroscopy was also used to assess protein stability since above a certain temperature, proteins undergo denaturation, followed by some degree of aggregate formation. The observed transition is referred to as an apparent denaturation or “melting” temperature (Tm) and indicate the relative stability of a protein. […]
For a given time point, aliquots from each sample were subjected to a series of standard analyses, including visual inspection, syringeability, pH, SDS-PAGE (under both reducing and non-reducing conditions), SE-HPLC, and IEF. Protein concentrations were determined by UV spectroscopy (OD-280). […]

[4] = Competitive ELISA for specificity: lipid competitors against anti-S1P mAb binding to coated S1P; conditions: for recognition of ceramide-1-phosphate (C1P): competitor C1P; for cross-reactivity to lysophosphatidic acid (LPA): competitor LPA
Experimental: As described in Example 1, below, bound antibody was detected by a second antibody, specific for the mouse or human IgG, conjugated with HRP. Chromogenic reactions were measured and reported as optical density (OD). The concentration of lipids used for the competition is indicated on the X-axis.
For cross reactivity, a competitive ELISA was performed as described above, except for the following alterations. The primary incubation consisted of the competitor (S1P, SPH, LPA, etc.) and a biotin-conjugated anti-S1P mAb. Biotinylation of the purified monoclonal antibody was performed using the EZ-Link Sulfo-NHS-Biotinylation kit (Pierce). […] The competitor was prepared as follows: lipid stocks were sonicated and dried under argon before reconstitution in DPBS/BSA [1 mg/ml fatty acid free BSA (Calbiochem) in DPBS (Invitrogen 14040-133)]. Purified anti-S1P mAb was diluted as necessary in PBS/0.5% Triton X-100. Competitor and antibody solutions were mixed together so to generate 3 parts competitor to 1 part antibody. A HRP-conjugated streptavidin secondary antibody (Jackson Immunoresearch) was used to generate signal.
i. Specificity. The humanized variants were tested for specificity in a competitive ELISA assay (FIG. 1) against S1P and several other biolipids.

[5] = LT1009 25 mg/kg ip q3d, increased to 75 mg/kg on Day 21
[6] = LT1009 50 mg/kg ip q3d, Avastin 40 mg/kg iv q7d, Paclitaxel 15 mg/kg iv q1d×5
[7] = LT1009 50 mg/kg IP Q3D to end, Bortezomib iv Q3D×6

LT1009: humanized anti-S1P IgG1/kappa mAb with Cys to Ala in HCDR2, light chain with 5 backmutations; SEQ ID NO: 31/32
% Reduction compared to Vehicle-Treated Mice [1, 5]: 20%
Final Tumor Weights [1, 5]: 2465.60 mg
% Reduction compared to Vehicle-Treated Mice [1, 6]: 32%
Final Tumor Weights [1, 6]: 2071.17 mg
% Reduction compared to Vehicle-Treated Mice ([2]; LT1009 25 mg/kg IP Q3D to end): 11%
Final Tumor Weights ([2]; LT1009 25 mg/kg IP Q3D to end): 1860 mg
% Reduction compared to Vehicle-Treated Mice [2, 7]: 5%
Final Tumor Weights [2, 7]: 1978 mg
conditions of greatest stability (SE-HPLC) [3]: most stable around pH 6 and 450 mM NaCl

B1: LT1002: murine anti-S1P monoclonal antibody, IgG1 kappa, from hybridoma clone 306D326.26 (antibody, listed as Mus sp., V domains shown)
VH: QAHLQQSDAELVKPGASVKISCKVSGFIFIDHTIHWMKQRPEQGLEWIGCISPRHDITKYNEMFRGKATLTADKSSTTAYIQVNSLTFEDSAVYFCARGGFYGSTIWFDFWGQGTTLTVS
VL: ETTVTQSPASLSMAIGEKVTIRCITTTDIDDDMNWFQQKPGEPPNLLISEGNILRPGVPSRFSSSGYGTDFLFTIENMLSEDVADYYCLQSDNLPFTFGSGTKLEIK
Specificity (ELISA) [4]: High
recognition of ceramide-1-phosphate (C1P) [4]: no antibody binding was observed
recognition of ceramide-1-phosphate (C1P) ([4]; listed as SPHINGOMAB): did not recognize
cross-reactivity with dihydrosphingosine-1-phosphate (DH-S1P) ([4]; competitor DH-S1P): did cross react
recognition of dihydrosphingosine (DH-SPH) ([4]; competitor DH-SPH): did not recognize
cross-reactivity to lysophosphatidic acid (LPA) [4]: no binding
cross-reactivity to lysophosphatidic acid (LPA) ([4]; listed as SPHINGOMAB): no cross-reactivity
recognition of phosphatidyl ethanolamine (PE) ([4]; competitor PE): did not recognize
recognition of phosphatidyl serine (PS) ([4]; competitor PS): did not recognize
recognition of sphingomyelin (SM) ([4]; competitor SM): did not recognize
cross-reactivity with sphingosylphosphoryl choline (SPC) ([4]; competitor SPC): somewhat reduced
cross-reactivity to sphingosine (SPH) ([4]; competitor SPH): no cross-reactivity
